Laboratory results reported in the supplement of paper PMC5998384.

Experiments:
HeLa Kyoto [1] = experiment: solubility in G1/S (NP-40 vs SDS abundance) (log2 ratio); higher = more soluble; conditions: cell cycle stage: G1/S
HeLa Kyoto [2] = experiment: melting temperature (median over replicates), in situ; higher = more thermally stable
HeLa Kyoto [3] = experiment: thermal stability score vs G1/S (z-score of summed log2 fold changes over temperatures); higher = more thermally stable than in G1/S
HeLa Kyoto [4] = experiment: solubility change mitosis vs G1/S (difference of NP-40 vs SDS log2 ratios) (log2 ratio difference); higher = more soluble in mitosis
[5] = cell cycle stage: early G1 (4.5 h after nocodazole release)
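Wherever melting temperature (median over replicates), in situ is given: HeLa Kyoto cells synchronized by double thymidine or nocodazole block, proteins quantified by TMT10plex mass spectrometry, three independent biological replicates.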
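Wherever solubility change mitosis vs G1/S (difference of NP-40 vs SDS log2 ratios) is given: synchronized HeLa Kyoto cells (double thymidine block for G1/S, nocodazole release for mitosis), protein amounts in NP-40 versus SDS lysates quantified by mass spectrometry, three biological replicates.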
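Wherever solubility in G1/S (NP-40 vs SDS abundance) is given: HeLa Kyoto cells arrested at G1/S by double thymidine block, proteins quantified by TMT10plex mass spectrometry in mild NP-40 versus SDS extracts, three biological replicates.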
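Wherever thermal stability score vs G1/S (z-score of summed log2 fold changes over temperatures) is given: synchronized HeLa Kyoto cells, proteins quantified by TMT10plex mass spectrometry, three biological replicates, mitosis taken 0.5 h after nocodazole release, G1/S directly after double thymidine block.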

Row | Sequence | solubility in G1/S (log2) (HeLa Kyoto [1]) | melting temperature (HeLa Kyoto [2]; cell cycle stage: G1/S) [°C] | melting temperature (HeLa Kyoto [2]; cell cycle stage: mitosis) [°C] | thermal stability score (HeLa Kyoto [3]; [5]) | thermal stability score (HeLa Kyoto [3]; cell cycle stage: mitosis) | solubility change mitosis (log2) (HeLa Kyoto [4])
1 | MSDEGSRGSRLPLALPPASQGCSSGGGGGGSSAGGSGNSRPPRNLQGLLQMAITAGSEEPDPPPEPMSEERRQWLQEAMSAAFRGQREEVEQMKSCLRVLSQPMPPTAGEAEQAADQQEREGALELLADLCENMDNAADFCQLSGMHLLVGRYLEAGAAGLRWRAAQLIGTCSQNVAAIQEQVLGLGALRKLLRLLDRDACDTVRVKALFAISCLVREQEAGLLQFLRLDGFSVLMRAMQQQVQKLKVKSAFLLQNLLVGHPEHKGTLCSMGMVQQLVALVRTEHSPFHEHVLGALCSLVTDFPQGVRECREPELGLEELLRHRCQLLQQHEEYQEELEFCEKLLQTCFSSPADDSMDR [HSPBP1] | 0.303 | 50.8 | 51.2 | 0.863 | 0.675 | 0.0712
2 | MSDEREVAEAATGEDASSPPPKTEAASDPQHPAASEGAAAAAASPPLLRCLVLTGFGGYDKVKLQSRPAAPPAPGPGQLTLRLRACGLNFADLMARQGLYDRLPPLPVTPGMEGAGVVIAVGEGVSDRKAGDRVMVLNRSGMWQEEVTVPSVQTFLIPEAMTFEEAAALLVNYITAYMVLFDFGNLQPGHSVLVHMAAGGVGMAAVQLCRTVENVTVFGTASASKHEALKENGVTHPIDYHTTDYVDEIKKISPKGVDIVMDPLGGSDTAKGYNLLKPMGKVVTYGMANLLTGPKRNLMALARTWWNQFSVTALQLLQANRAVCGFHLGYLDGEVELVSGVVARLLALYNQGHIKPHIDSVWPFEKVADAMKQMQEKKNVGKVLLVPGPEKEN [VAT1] | 0.232 | 55.9 | 55.3 | -0.577 | -3.49 | -0.125
3 | MSDKLPYKVADIGLAAWGRKALDIAENEMPGLMRMRERYSASKPLKGARIAGCLHMTVETAVLIETLVTLGAEVQWSSCNIFSTQDHAAAAIAKAGIPVYAWKGETDEEYLWCIEQTLYFKDGPLNMILDDGGDLTNLIHTKYPQLLPGIRGISEETTTGVHNLYKMMANGILKVPAINVNDSVTKSKFDNLYGCRESLIDGIKRATDVMIAGKVAVVAGYGDVGKGCAQALRGFGARVIITEIDPINALQAAMEGYEVTTMDEACQEGNIFVTTTGCIDIILGRHFEQMKDDAIVCNIGHFDVEIDVKWLNENAVEKVNIKPQVDRYRLKNGRRIILLAEGRLVNLGCAMGHPSFVMSNSFTNQVMAQIELWTHPDKYPVGVHFLPKKLDEAVAEAHLGKLNVKLTKLTEKQAQYLGMSCDGPFKPDHYRY [AHCY] | 0.0748 | 58.9 | 59.3 | -2.93 | -2.39 | -0.0568
4 | MSDLLLLGLIGGLTLLLLLTLLAFAGYSGLLAGVEVSAGSPPIRNVTVAYKFHMGLYGETGRLFTESCSISPKLRSIAVYYDNPHMVPPDKCRCAVGSILSEGEESPSPELIDLYQKFGFKVFSFPAPSHVVTATFPYTTILSIWLATRRVHPALDTYIKERKLCAYPRLEIYQEDQIHFMCPLARQGDFYVPEMKETEWKWRGLVEAIDTQVDGTGADTMSDTSSVSLEVSPGSRETSAATLSPGASSRGWDDGDTRSEHSYSESGASGSSFEELDLEGEGPLGESRLDPGTEPLGTTKWLWEPTAPEKGKE [TEX264] | -0.0622 | 51.2 | 51.2 | 0.0754 | -0.347 | -0.257
5 | MSDNGELEDKPPAPPVRMSSTIFSTGGKDPLSANHSLKPLPSVPEEKKPRHKIISIFSGTEKGSKKKEKERPEISPPSDFEHTIHVGFDAVTGEFTGMPEQWARLLQTSNITKLEQKKNPQAVLDVLKFYDSNTVKQKYLSFTPPEKDGFPSGTPALNAKGTEAPAVVTEEEDDDEETAPPVIAPRPDHTKSIYTRSVIDPVPAPVGDSHVDGAAKSLDKQKKKTKMTDEEIMEKLRTIVSIGDPKKKYTRYEKIGQGASGTVFTATDVALGQEVAIKQINLQKQPKKELIINEILVMKELKNPNIVNFLDSYLVGDELFVVMEYLAGGSLTDVVTETCMDEAQIAAVCRECLQALEFLHANQVIHRDIKSDNVLLGMEGSVKLTDFGFCAQITPEQSKRSTMVGTPYWMAPEVVTRKAYGPKVDIWSLGIMAIEMVEGEPPYLNENPLRALYLIATNGTPELQNPEKLSPIFRDFLNRCLEMDVEKRGSAKELLQHPFLKLAKPLSSLTPLIMAAKEAMKSNR [PAK2] | 0.152 | 54.9 | 54.6 | -1.97 | -1.45 | -0.119
6 | MSEAGGRGCGSPVPQRARWRLVAATAAFCLVSATSVWTAGAEPMSREEKQKLGNQVLEMFDHAYGNYMEHAYPADELMPLTCRGRVRGQEPSRGDVDDALGKFSLTLIDSLDTLVVLNKTKEFEDAVRKVLRDVNLDNDVVVSVFETNIRVLGGLLGGHSLAIMLKEKGEYMQWYNDELLQMAKQLGYKLLPAFNTTSGLPYPRINLKFGIRKPEARTGTETDTCTACAGTLILEFAALSRFTGATIFEEYARKALDFLWEKRQRSSNLVGVTINIHTGDWVRKDSGVGAGIDSYYEYLLKAYVLLGDDSFLERFNTHYDAIMRYISQPPLLLDVHIHKPMLNARTWMDALLAFFPGLQVLKGDIRPAIETHEMLYQVIKKHNFLPEAFTTDFRVHWAQHPLRPEFAESTYFLYKATGDPYYLEVGKTLIENLNKYARVPCGFAAMKDVRTGSHEDRMDSFFLAEMFKYLYLLFADKEDIIFDIEDYIFTTEAHLLPLWLSTTNQSISKKNTTSEYTELDDSNFDWTCPNTQILFPNDPLYAQSIREPLKNVVDKSCPRGIIRVEESFRSGAKPPLRARDFMATNPEHLEILKKMGVSLIHLKDGRVQLVQHAIQAASSIDAEDGLRFMQEMIELSSQQQKEQQLPPRAVQIVSHPFFGRVVLTAGPAQFGLDLSKHKETRGFVASSKPSNGCSELTNPEAVMGKIALIQRGQCMFAEKARNIQNAGAIGGIVIDDNEGSSSDTAPLFQMAGDGKDTDDIKIPMLFLFSKEGSIILDAIREYEEVEVLLSDKAKDRDPEMENEEQPSSENDSQNQSGEQISSSSQEVDLVDQESSEENSLNSHPESLSLADMDNAASISPSEQTSNPTENHETTNLNGECTDLDNQLQEQSETEEDSNPNVSWGKKVQPIDSILADWNEDIEAFEMMEKDEL [EDEM3] | 0.311 | 53.5 | 53.7 | 0.67 | 0.929 | -0.156
7 | MSEAPRFFVGPEDTEINPGNYRHFFHHADEDDEEEDDSPPERQIVVGICSMAKKSKSKPMKEILERISLFKYITVVVFEEEVILNEPVENWPLCDCLISFHSKGFPLDKAVAYAKLRNPFVINDLNMQYLIQDRREVYSILQAEGILLPRYAILNRDPNNPKECNLIEGEDHVEVNGEVFQKPFVEKPVSAEDHNVYIYYPTSAGGGSQRLFRKIGSRSSVYSPESNVRKTGSYIYEEFMPTDGTDVKVYTVGPDYAHAEARKSPALDGKVERDSEGKEVRYPVILNAREKLIAWKVCLAFKQTVCGFDLLRANGQSYVCDVNGFSFVKNSMKYYDDCAKILGNIVMRELAPQFHIPWSIPLEAEDIPIVPTTSGTMMELRCVIAVIRHGDRTPKQKMKMEVRHQKFFDLFEKCDGYKSGKLKLKKPKQLQEVLDIARQLLMELGQNNDSEIEENKPKLEQLKTVLEMYGHFSGINRKVQLTYLPHGCPKTSSEEEDSRREEPSLLLVLKWGGELTPAGRVQAEELGRAFRCMYPGGQGDYAGFPGCGLLRLHSTYRHDLKIYASDEGRVQMTAAAFAKGLLALEGELTPILVQMVKSANMNGLLDSDSDSLSSCQQRVKARLHEILQKDRDFTAEDYEKLTPSGSISLIKSMHLIKNPVKTCDKVYSLIQSLTSQIRHRMEDPKSSDIQLYHSETLELMLRRWSKLEKDFKTKNGRYDISKIPDIYDCIKYDVQHNGSLKLENTMELYRLSKALADIVIPQEYGITKAEKLEIAKGYCTPLVRKIRSDLQRTQDDDTVNKLHPVYSRGVLSPERHVRTRLYFTSESHVHSLLSILRYGALCNESKDEQWKRAMDYLNVVNELNYMTQIVIMLYEDPNKDLSSEERFHVELHFSPGAKGCEEDKNLPSGYGYRPASRENEGRRPFKIDNDDEPHTSKRDEVDRAVILFKPMVSEPIHIHRKSPLPRSRKTATNDEESPLSVSSPEGTGTWLHYTSGVGTGRRRRRSGEQITSSPVSPKSLAFTSSIFGSWQQVVSENANYLRTPRTLVEQKQNPTVGSHCAGLFSTSVLGGSSSAPNLQDYARTHRKKLTSSGCIDDATRGSAVKRFSISFARHPTNGFELYSMVPSICPLETLHNALSLKQVDEFLASIASPSSDVPRKTAEISSTALRSSPIMRKKVSLNTYTPAKILPTPPATLKSTKASSKPATSGPSSAVVPNTSSRKKNITSKTETHEHKKNTGKKK [PPIP5K2] | 0.0594 | 52.5 | 52.6 | 0.0139 | 0.108 | -0.068
8 | MSEASSEDLVPPLEAGAAPYREEEEAAKKKKEKKKKSKGLANVFCVFTKGKKKKGQPSSAEPEDAAGSRQGLDGPPPTVEELKAALERGQLEAARPLLALERELAAAAAAGGVSEEELVRRQSKVEALYELLRDQVLGVLRRPLEAPPERLRQALAVVAEQEREDRQAAAAGPGTSGLAATRPRRWLQLWRRGVAEAAEERMGQRPAAGAEVPESVFLHLGRTMKEDLEAVVERLKPLFPAEFGVVAAYAESYHQHFAAHLAAVAQFELCERDTYMLLLWVQNLYPNDIINSPKLVGELQGMGLGSLLPPRQIRLLEATFLSSEAANVRELMDRALELEARRWAEDVPPQRLDGHCHSELAIDIIQITSQAQAKAESITLDLGSQIKRVLLVELPAFLRSYQRAFNEFLERGKQLTNYRANVIANINNCLSFRMSMEQNWQVPQDTLSLLLGPLGELKSHGFDTLLQNLHEDLKPLFKRFTHTRWAAPVETLENIIATVDTRLPEFSELQGCFREELMEALHLHLVKEYIIQLSKGRLVLKTAEQQQQLAGYILANADTIQHFCTQHGSPATWLQPALPTLAEIIRLQDPSAIKIEVATYATCYPDFSKGHLSAILAIKGNLSNSEVKRIRSILDVSMGAQEPSRPLFSLIKVG [TNFAIP2] | 0.296 | 50.4 | 48.2 | 0.545 | 1.06 | -0.0517
9 | MSEEQFGGDGAAAAATAAVGGSAGEQEGAMVAATQGAAAAAGSGAGTGGGTASGGTEGGSAESEGAKIDASKNEEDEGHSNSSPRHSEAATAQREEWKMFIGGLSWDTTKKDLKDYFSKFGEVVDCTLKLDPITGRSRGFGFVLFKESESVDKVMDQKEHKLNGKVIDPKRAKAMKTKEPVKKIFVGGLSPDTPEEKIREYFGGFGEVESIELPMDNKTNKRRGFCFITFKEEEPVKKIMEKKYHNVGLSKCEIKVAMSKEQYQQQQQWGSRGGFAGRARGRGGGPSQNWNQGYSNYWNQGYGNYGYNSQGYGGYGGYDYTGYNNYYGYGDYSNQQSGYGKVSRRGGHQNSYKPY [HNRNPD] | 0.068 | 55.6 | 54.9 | -3.11 | -2.98 | 0.191
10 | MSEGVDLIDIYADEEFNQDPEFNNTDQIDLYDDVLTATSQPSDDRSSSTEPPPPVRQEPSPKPNNKTPAILYTYSGLRNRRAAVYVGSFSWWTTDQQLIQVIRSIGVYDVVELKFAENRANGQSKGYAEVVVASENSVHKLLELLPGKVLNGEKVDVRPATRQNLSQFEAQARKRECVRVPRGGIPPRAHSRDSSDSADGRATPSENLVPSSARVDKPPSVLPYFNRPPSALPLMGLPPPPIPPPPPLSSSFGVPPPPPGIHYQHLMPPPPRLPPHLAVPPPGAIPPALHLNPAFFPPPNATVGPPPDTYMKASAPYNHHGSRDSGPPPSTVSEAEFEDIMKRNRAISSSAISKAVSGASAGDYSDAIETLLTAIAVIKQSRVANDERCRVLISSLKDCLHGIEAKSYSVGASGSSSRKRHRSRERSPSRSRESSRRHRDLLHNEDRHDDYFQERNREHERHRDRERDRHH [CPSF7] | -0.309 | 51.8 | 52.1 | -1.14 | -2.91 | 0.173
